Data: the supplement of paper PMC7877785
± gives the uncertainty stated by the source.

Assay: self-splicing fitness, log relative to wild type (ln ratio); higher = more splicing; Tetrahymena group I intron in knt gene, E. coli kanamycin selection, DiMSum; sequences stand for … in CUCUCU…GGAGGGAAAAGUUAUCAGGCAUGCACCUGGUAGCUAGUCUUUAAACCAAUAGAUUGCAUCGGUUUAAAAGGCAAGACCGUCAAAUUGCGGGAAAGGGGUCAACAGCCGUUCAGUACCAAGUCUCAGGGGAAACUUUGAGAUGGCCUUGCAAAGGGUAUGGUAAUAAGCUGACGGACAUGGUCCUAACCACGCAGCCAAGUCCUAAGUCAACAGAUCUUCUGUUGAUAUGGAUGCAGUUCACAGACUAAAUGUCGGUCGGGGAAGAUGUAUUCUUCUCAUAAGAUAUAGUCGGACCUCUCCUUAAUGGGAGCUAGCGGAUGAAGUGAUGCAACACUGGAGCCGCUGGGAACUAAUUUGUAUGCGAAAGUAUAUUGAUUAGUUUUGGAGUACUCGUGGUCG
Method in brief: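 A randomised library covering all eight P1ex-region intron nucleotides was built with the intron in the knt kanamycin-resistance gene on pET-22b(+) and held in E. coli BL21(DE3). Cells were grown overnight at 37°C or 30°C on LB agar, with or without 25 μg/mL kanamycin, plus 100 μg/mL carbenicillin, 50 μM IPTG and 0.2% rhamnose, and pooled colonies were amplicon-sequenced on an Illumina HiSeq 2500. DiMSum fitness is the error-weighted combination of wild-type-normalised replicate fold changes, kanamycin versus none.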

Sequence | self-splicing fitness (ln) (30 °C) | self-splicing fitness (ln) (37 °C)
UCGAAGCAAUAUUACGGGAC | -3.19 ± 0.47 | -3.17 ± 0.33
UCGAAGCAAUAUUACGGUAC | -4.43 ± 0.39 | –
UCGAAGCAAUAUUACGGUUG | -1.65 ± 0.097 | -0.93 ± 0.14
UCGAAGCAAUAUUACGUCUC | -2.49 ± 0.15 | -2.28 ± 0.32
UCGAAGCAAUAUUACGUCUU | -3.87 ± 0.14 | -2.29 ± 0.15
UCGAAGCAAUAUUACGUGCC | -2.86 ± 0.42 | –
UCGAAGCAAUAUUACGUGGC | – | -2.78 ± 0.23
UCGCAGCAAUAUUACGAACG | -2.63 ± 0.39 | -1.05 ± 0.3
UCGCAGCAAUAUUACGACGU | -1.46 ± 0.076 | -0.706 ± 0.074
UCGCAGCAAUAUUACGAGGA | -2.88 ± 0.19 | -0.7 ± 0.12
UCGCAGCAAUAUUACGAGUA | -2.36 ± 0.14 | -0.752 ± 0.12
UCGCAGCAAUAUUACGAGUU | -4.47 ± 0.28 | -1.95 ± 0.23
UCGCAGCAAUAUUACGCCGC | – | -1.21 ± 0.32
UCGCAGCAAUAUUACGCCUG | -3.14 ± 0.23 | -1.28 ± 0.2
UCGCAGCAAUAUUACGCGUC | -3.42 ± 0.16 | -1.8 ± 0.14
UCGCAGCAAUAUUACGCUGC | -2.62 ± 0.49 | -0.264 ± 0.26
UCGCAGCAAUAUUACGCUGU | -3.13 ± 0.14 | -3.02 ± 0.19
UCGCAGCAAUAUUACGGAAA | -2.71 ± 0.21 | -1.57 ± 0.17
UCGCAGCAAUAUUACGGAAC | -1.51 ± 0.32 | -2.53 ± 0.41
UCGCAGCAAUAUUACGGACC | -3.5 ± 0.41 | -2.69 ± 0.33
UCGCAGCAAUAUUACGGAGC | -3.54 ± 0.35 | -1.89 ± 0.26

Sequence | self-splicing fitness (ln) (30 °C) | self-splicing fitness (ln) (37 °C)
UCGCAGCAAUAUUACGGAGU | -2.32 ± 0.21 | -1.92 ± 0.23
UCGCAGCAAUAUUACGGCAC | -1.94 ± 0.34 | -2.67 ± 0.29
UCGCAGCAAUAUUACGGCCA | -0.107 ± 0.091 | 0.246 ± 0.11
UCGCAGCAAUAUUACGGGGC | -2.52 ± 0.23 | -2.63 ± 0.27
UCGCAGCAAUAUUACGUACU | – | -1.86 ± 0.32
UCGCAGCAAUAUUACGUCCG | -0.808 ± 0.078 | -0.0675 ± 0.1
UCGGAGCAAUAUUACGAAAU | -3.14 ± 0.49 | –
UCGGAGCAAUAUUACGACUA | -1.22 ± 0.37 | -1.83 ± 0.38
UCGGAGCAAUAUUACGAGCU | -2.89 ± 0.27 | –
UCGGAGCAAUAUUACGAUAC | -3.5 ± 0.35 | -0.757 ± 0.33
UCGGAGCAAUAUUACGCUAA | -2.18 ± 0.35 | –
UCGGAGCAAUAUUACGGAAA | – | -2.64 ± 0.36
UCGGAGCAAUAUUACGGACA | – | -1.38 ± 0.37
UCGGAGCAAUAUUACGGUCU | -0.916 ± 0.37 | –
UCGGAGCAAUAUUACGGUUA | -2.38 ± 0.47 | -2.3 ± 0.28
UCGGAGCAAUAUUACGUAGG | -1.78 ± 0.13 | -0.619 ± 0.15
UCGGAGCAAUAUUACGUCGG | -1.7 ± 0.24 | -2.04 ± 0.28
UCGGAGCAAUAUUACGUGAU | – | -3.24 ± 0.47
UCGGAGCAAUAUUACGUGCC | -3.26 ± 0.34 | -2.53 ± 0.45
UCGGAGCAAUAUUACGUGGG | -3.49 ± 0.32 | -3.22 ± 0.28
UCGGAGCAAUAUUACGUGUA | – | -1.29 ± 0.2

Sequence | self-splicing fitness (ln) (30 °C) | self-splicing fitness (ln) (37 °C)
UCGGAGCAAUAUUACGUUAG | – | -2.12 ± 0.22
UCGUAGCAAUAUUACGAAAG | -3.1 ± 0.17 | -2.16 ± 0.23
UCGUAGCAAUAUUACGACAC | -3.54 ± 0.34 | -2.7 ± 0.4
UCGUAGCAAUAUUACGACAG | – | -1.5 ± 0.29
UCGUAGCAAUAUUACGACGA | -3.15 ± 0.3 | -0.365 ± 0.11
UCGUAGCAAUAUUACGACUC | – | -1.34 ± 0.31
UCGUAGCAAUAUUACGAGAG | -4.38 ± 0.46 | -1.89 ± 0.25
UCGUAGCAAUAUUACGAGUA | -2.71 ± 0.18 | -1.21 ± 0.13
UCGUAGCAAUAUUACGAUCA | -0.922 ± 0.19 | -0.511 ± 0.17
UCGUAGCAAUAUUACGAUUG | -2.6 ± 0.15 | -2.92 ± 0.28
UCGUAGCAAUAUUACGCAGU | -3.54 ± 0.39 | -2.51 ± 0.28
UCGUAGCAAUAUUACGCCCU | -1 ± 0.25 | -0.827 ± 0.34
UCGUAGCAAUAUUACGGACU | -3.21 ± 0.31 | -0.974 ± 0.21
UCGUAGCAAUAUUACGGCUU | -2.85 ± 0.46 | -1.64 ± 0.33
UCGUAGCAAUAUUACGGUAG | -4.09 ± 0.36 | -3.06 ± 0.4
UCGUAGCAAUAUUACGGUGU | -3.09 ± 0.13 | -2.7 ± 0.19
UCGUAGCAAUAUUACGUAAU | -2.47 ± 0.14 | -1.78 ± 0.17
UCGUAGCAAUAUUACGUGCU | -2.98 ± 0.26 | -2.83 ± 0.48
UCGUAGCAAUAUUACGUGGA | -2.39 ± 0.16 | -2.36 ± 0.13
UCGUAGCAAUAUUACGUUUA | -1.5 ± 0.085 | -0.934 ± 0.08
UCGUAGCAAUAUUACGUUUC | -3.71 ± 0.24 | -2.31 ± 0.21

Sequence | self-splicing fitness (ln) (30 °C) | self-splicing fitness (ln) (37 °C)
UCUAAGCAAUAUUACGAACA | -1.21 ± 0.28 | -1.2 ± 0.2
UCUAAGCAAUAUUACGAAUA | – | -1.52 ± 0.32
UCUAAGCAAUAUUACGACAG | -1.58 ± 0.1 | -0.799 ± 0.15
UCUAAGCAAUAUUACGACUC | -3.61 ± 0.48 | -2.43 ± 0.42
UCUAAGCAAUAUUACGACUU | -3.9 ± 0.28 | -3.44 ± 0.37
UCUAAGCAAUAUUACGAGAA | -3.17 ± 0.5 | -1.69 ± 0.39
UCUAAGCAAUAUUACGAGCC | -2.34 ± 0.34 | –
UCUAAGCAAUAUUACGAGCG | -1.19 ± 0.1 | -0.708 ± 0.12
UCUAAGCAAUAUUACGAUCG | -1.06 ± 0.099 | -0.234 ± 0.1
UCUAAGCAAUAUUACGCAAC | -3.54 ± 0.17 | -1.32 ± 0.2
UCUAAGCAAUAUUACGCAAU | – | -3.12 ± 0.43
UCUAAGCAAUAUUACGCAGA | – | -0.999 ± 0.21
UCUAAGCAAUAUUACGGACA | -2.39 ± 0.18 | -1.18 ± 0.17
UCUAAGCAAUAUUACGGACU | -3.51 ± 0.28 | -2.84 ± 0.27
UCUAAGCAAUAUUACGGCAG | -1.35 ± 0.13 | -0.508 ± 0.14
UCUAAGCAAUAUUACGGCCG | -1.36 ± 0.34 | 0.444 ± 0.3
UCUAAGCAAUAUUACGGCUC | – | -1.67 ± 0.35
UCUAAGCAAUAUUACGGGUA | -1.64 ± 0.11 | -0.58 ± 0.1
UCUAAGCAAUAUUACGUAAU | -3.41 ± 0.2 | -1.66 ± 0.19
